Laboratory results from patent US20140328819.

T1: soluble tissue factor (sTF), P13726
T1 chain: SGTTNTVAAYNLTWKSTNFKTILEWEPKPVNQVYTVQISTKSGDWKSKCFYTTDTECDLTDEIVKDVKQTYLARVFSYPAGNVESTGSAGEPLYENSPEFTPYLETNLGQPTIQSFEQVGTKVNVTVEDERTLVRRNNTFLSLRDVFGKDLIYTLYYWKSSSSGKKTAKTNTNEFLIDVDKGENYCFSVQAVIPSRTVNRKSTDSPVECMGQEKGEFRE


What was measured:
[1] = tested on: FIX/cFXI2/XTEN (pCW0736), FIX-DFTRVVG-XTEN_AE864
[2] = tested on: FIX/cFXI3/XTEN (pCW0737), FIX-/FXI/-XTEN_AE864
[3] = tested on: FIX/cFXI1/XTEN (pCW0735), FIX-KLTRAET-XTEN_AE864
[4] = target: T1, soluble tissue factor (sTF), P13726

| Molecule | Concentration by Activity (ng/ml), aPTT based factor assay [1] | Fraction Active (activity / ELISA) [1] | clotting activity (aPTT based factor assay), fold enhancement by the FXI cleavage site [1] | Concentration by Activity (ng/ml), aPTT based factor assay [2] | Fraction Active (activity / ELISA) [2] | clotting activity (aPTT based factor assay), fold enhancement by the FXI cleavage site [2] | Concentration by Activity (ng/ml), aPTT based factor assay [3] | Fraction Active (activity / ELISA) [3] | clotting activity (aPTT based factor assay), fold enhancement by the FXI cleavage site [3] | soluble tissue factor (sTF) induced clotting in FVII null plasma (Stago STA-Clot FVIIa activity assay kit) [4] |
| --- | --- | --- | --- | --- | --- | --- | --- | --- | --- | --- |
| FXI protease (FXIa) of the aPTT assay plasma | 9 ng/mL | 34% | In all three cases the presence of a FXI cleavage site enhanced the clotting activity by greater than 30-fold | 11 ng/mL | 40% | In all three cases the presence of a FXI cleavage site enhanced the clotting activity by greater than 30-fold | 7 ng/mL | 30% | In all three cases the presence of a FXI cleavage site enhanced the clotting activity by greater than 30-fold | – |
| FVIIa-AE288 (activated FVII-AE288, AC398) (protein) AVFVTQEEAHGVLHRRRRANAFLEELRPGSLERECKEEQCSFEEAREIFKDAERTKLFWISYSDGDQCASSPCQNGGSCKDQLQSYICFCLPAFEGRNCETHKDDQLICVNENGGCEQYCSDHTGTKRSCRCHEGYSLLADGVSCTPTVEYPCGKIPILEKRNASKPQGRIVGGKVCPKGECPWQVLLLVNGAQLCGGTLINTIWVVSAAHCFDKIKNWRNLIAVLGEHDLSEHDGDEQSRRVAQVIIPSTYVPGTTNHDIALLRLHQPVVLTDHVVPLCLPERTFSERTLAFVRFSLVSGWGQLLDRGATALELMVLNVPRLMTQDCLQQSRKVGDSPNITEYMFCAGYSDGSKDSCKGDSGGPHATHYRGTWYLTGIVSWGQGCATVGHFGVYTRVSQYIEWLQKLMRSEPRPGVLLRAPFPGSPGTSESATPESGPGSEPATSGSETPGTSESATPESGPGSEPATSGSETPGTSESATPESGPGTSTEPSEGSAPGSPAGSPTSTEEGTSESATPESGPGSEPATSGSETPGTSESATPESGPGSPAGSPTSTEEGSPAGSPTSTEEGTSTEPSEGSAPGTSESATPESGPGTSESATPESGPGTSESATPESGPGSEPATSGSETPGSEPATSGSETPGSPAGSPTSTEEGTSTEPSEGSAPGTSTEPSEGSAPGSEPATSGSETPGTSESATPESGPGTSTEPSEGSAPGSSS | – | – | – | – | – | – | – | – | – | an activity equivalent to 112 U/ml of FVIIa activity |
